From PMC9437119

Target: T1, Flag-tagged human Fis1 (WT) (human), Q9Y3D6
T1 chain: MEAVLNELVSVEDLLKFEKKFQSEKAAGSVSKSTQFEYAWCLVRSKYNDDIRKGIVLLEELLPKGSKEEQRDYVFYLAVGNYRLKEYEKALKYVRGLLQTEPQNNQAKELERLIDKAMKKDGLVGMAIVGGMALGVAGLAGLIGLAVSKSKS
Assay: SDS-resistant oligomers on SDS-PAGE immunoblot of the immunoprecipitate; anti-myc immunoprecipitate of the Mid51/Fis1 complex from HeLa lysate heated 20 min at 55°C, 4-20% Tris-Glycine SDS-PAGE; SDS-resistant complexes detected with anti-myc (Mid51 species) or anti-Flag (Fis1 species); species normalized to monomer
Conditions: remark: other sources report otherwise

- stoichiometry N: 4
B1: Flag-tagged human Fis1 (WT), Q9Y3D6 1-152 (natural protein)
chain: T1 chain
